From US20220119492A1

Biological target: T1, human IL-2Rβ (CD122 protein, Fc Tag) (27-239) (human), P14784
T1 chain: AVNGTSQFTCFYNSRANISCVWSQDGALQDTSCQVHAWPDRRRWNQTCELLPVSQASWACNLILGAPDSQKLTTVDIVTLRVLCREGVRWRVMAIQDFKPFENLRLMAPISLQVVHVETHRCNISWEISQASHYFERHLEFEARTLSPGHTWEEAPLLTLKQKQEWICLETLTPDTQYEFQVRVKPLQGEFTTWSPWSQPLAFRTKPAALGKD
Assay: competitive binding ELISA (Example 28)

B1: IL-2Rβ ligand SEQ ID NO: 83 (peptide)
peptide: CCYQAMVGDLCDFC
modifications: not checked
An IC50 of less than 10 µM was found for B1 in this work.
